These results are taken from US20120077731A1 (Ablynx, published 2012).

This assay concerns the target T1, Cyno plasma sIL-6R (cynomolgus monkey, UniProt A0A2K5WN54 60-396).
T1 construct: also called cynomolgus sIL-6R
T1 sequence: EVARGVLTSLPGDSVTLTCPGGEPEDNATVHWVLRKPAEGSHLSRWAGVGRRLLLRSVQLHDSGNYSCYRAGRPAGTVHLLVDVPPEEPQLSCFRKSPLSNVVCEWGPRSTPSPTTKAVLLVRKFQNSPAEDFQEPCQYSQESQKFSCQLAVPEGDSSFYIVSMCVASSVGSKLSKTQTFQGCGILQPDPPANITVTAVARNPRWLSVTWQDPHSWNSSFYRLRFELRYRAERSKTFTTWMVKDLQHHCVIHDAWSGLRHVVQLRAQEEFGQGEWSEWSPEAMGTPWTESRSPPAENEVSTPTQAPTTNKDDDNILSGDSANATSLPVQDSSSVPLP
Briefly: plasma potency ELISA, cyno plasma. In general terms: An ELISA detects its analyte on a solid surface through an enzyme-linked reagent.

B1: PMP20A11 (VHH)
VHH: EVQLVESGGGLVQPGGSLRLSCAASGSVFKINVMAWYRQAPGKGRELVAGIISGGSTSYADSVKGRFTISRDNAKNTLYLQMNSLRPEDTAVYYCAFITTESDYDLGRRYWGQGTLVTVSS
notes: also called IL6R20A11; IL6R300; not shown: c-myc and (His)6 tags
B1: the midpoint of inhibition, the IC50, lay at 0.117 nM. This lies in the sub-nanomolar range.
